# Source: patent publication US12570711B2, “Platforms for co-stimulation, novel car designs and other enhancements for adoptive cellular therapy” (Angeles Therapeutics, Inc., priority 2017, dated 2026)
# T1: CD19 (Homo sapiens, UniProt P15391)
# T1 construct: endogenous in cells; host or cells: RAJI cells in vitro
# T1 sequence (P15391 20-556): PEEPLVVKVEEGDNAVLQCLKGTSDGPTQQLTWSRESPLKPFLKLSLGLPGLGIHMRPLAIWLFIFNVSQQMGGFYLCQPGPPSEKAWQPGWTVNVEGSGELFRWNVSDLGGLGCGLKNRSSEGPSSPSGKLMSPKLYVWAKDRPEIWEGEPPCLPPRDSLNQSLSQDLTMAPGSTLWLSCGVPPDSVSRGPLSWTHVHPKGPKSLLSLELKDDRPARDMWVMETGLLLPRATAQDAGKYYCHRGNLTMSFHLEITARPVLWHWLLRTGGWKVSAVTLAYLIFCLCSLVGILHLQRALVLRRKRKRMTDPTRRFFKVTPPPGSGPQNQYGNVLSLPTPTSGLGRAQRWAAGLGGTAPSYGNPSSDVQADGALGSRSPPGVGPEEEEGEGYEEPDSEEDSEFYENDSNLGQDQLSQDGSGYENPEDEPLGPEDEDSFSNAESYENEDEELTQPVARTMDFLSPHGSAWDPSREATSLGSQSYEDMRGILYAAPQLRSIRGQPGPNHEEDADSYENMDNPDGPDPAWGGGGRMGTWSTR
# B1: EF1α-D-SacII promoter: EF1α promoter from which an internal SacII fragment was deleted (nucleic acid)
# DNA: GTGAGGCTCCGGTGCCCGTCAGTGGGCAGAGCGCACATCGCCCACAGTCCCCGAGAAGTTGGGGGGAGGGGTCGGCAATTGAACCGGTGCCTAGAGAAGGTGGCGCGGGGTAAACTGGGAAAGTGATGTCGTGTACTGGCTCCGCCTTTTTCCCGAGGGTGGGGGAGAACCGTATATAAGTGCAGTAGTCGCCGTGAACGTTCTTTTTCGCAACGGGTTTGCCGCCAGAACACAGGTAAGTGCCGTGTGTGGTTCCCGCGGGCGGCGACGGGGCCCGTGCGTCCCAGCGCACATGTTCGGCGAGGCGGGGCCTGCGAGCGCGGCCACCGAGAATCGGACGGGGGTAGTCTCAAGCTGGCCGGCCTGCTCTGGTGCCTGGCCTCGCGCCGCCGTGTATCGCCCCGCCCTGGGCGGCAAGGCTGGCCCGGTCGGCACCAGTTGCGTGAGCGGAAAGATGGCCGCTTCCCGGCCCTGCTGCAGGGAGCTCAAAATGGAGGACGCGGCGCTCGGGAGAGCGGGCGGGTGAGTCACCCACACAAAGGAAAAGGGCCTTTCCGTCCTCAGCCGTCGCTTCATGTGACTCCACGGAGTACCGGGCGCCGTCCAGGCACCTCGATTAGTTCTCGACCTTTTGGAGTACGTCGTCTTTAGGTTGGGGGGAGGGGTTTTATGCGATGGAGTTTCCCCACACTGAGTGGGTGGAGACTGAAGTTAGGCCAGCTTGGCACTTGATGTAATTCTCCTTGGAATTTGCCCTTTTTGAGTTTGGATCTTGGTTCATTCTCAAGCCTCAGACAGTGGTTCAAAGTTTTTTTCTTCCATTTCAGGTGTCGTGA
# Biological target: T1, CD19
# Assay: Jurkat-NFAT-EGFP (J-N-G) reporter: EGFP induction upon co-culture with RAJI cells
# Assay type: cell-based
# Conditions: co-culture with CD19+ve RAJI cells, compared to wild-type EF1α promoter
# Description: Jurkat cell line (clone E6-1) engineered with a NFAT-dependent EGFP (or GFP) reporter gene was a gift from Dr. Arthur Weiss at University of California San Francisco and have been described to study CAR-signaling ((Wu, C Y et al., Science 350:293-302, 2015). Jurkat cells were maintained in RPMI-1640 medium supplemented with 10% FBS, penicillin and streptomycin.
# Use of strong viral promoters in adoptive cellular therapy applications carries the risk of activation of downstream oncogenes and development of cancer. As such, human Elongation Factor 1α (EF1α) promoter is frequently used in adoptive cellular therapy applications as it provides strong expression and is human in origin. A limitation of EF1α promoter, however, is its relatively large size. Although a mini-EF1α promoter has been described, it is much weaker as compared to the EF1α promoter. To determine whether an internal deletion in the EF1α promoter would allow shortening of its length while preserving its promoter strength, a SacII fragment was deleted from the EF1α promoter. […] The vectors also co-expressed EGFP and blasticidin resistance gene via 2A linkers. Lentiviruses were generated in 293FT cells and used to infect J-N-G cells.
molecule,measurement,value
B1,induction of EGFP expression by FMC63-BBz CAR,Near equivalent inducton of EGFP expression
